Test results as given in patent US10941182 (Amgen, dated 2021).
Starred links: 1 amine or outer side, 2 acyl side, 3 side chain; linkers in the order of their positions; H or OH if unused. Non-standard residues stand in square brackets, D forms with d. *: point of attachment. AC4Abu = α-carboxy-4-aminobutyric acid, O=C(C(CCN[*:1])C(=O)[*:3])[*:2]; Oic = O=C(O)[C@@H]1C[C@@H]2CCCC[C@@H]2N1; Phe(4-Cl) = N[C@@H](Cc1ccc(Cl)cc1)C(=O)O; γGlu = O=C(O)[C@H](CCC(=O)[*:2])N[*:1]; 1Nal = N[C@@H](Cc1cccc2ccccc12)C(=O)O; 2Nal = N[C@@H](Cc1ccc2ccccc2c1)C(=O)O; NMeR = CN[C@@H](CCCNC(=N)N)C(=O)O; Tridecanoyl = CCCCCCCCCCCCC(=O)*; Cha = N[C@@H](CC1CCCCC1)C(=O)O; Gly(N-CH2CH2OH) = O=C(O)CNCCO; Tle = CC(C)(C)[C@H](N)C(=O)O; Nle = CCCC[C@H](N)C(=O)O; AEEA = NCCOCCOCC(=O)O; Aib = CC(C)(N)C(=O)O; βAla = NCCC(=O)O

Assays:
[1] = biological target: T1, human APJ receptor (human, UniProt P35414 1-380); assay: cell-based or functional assay
T1 sequence (looked up): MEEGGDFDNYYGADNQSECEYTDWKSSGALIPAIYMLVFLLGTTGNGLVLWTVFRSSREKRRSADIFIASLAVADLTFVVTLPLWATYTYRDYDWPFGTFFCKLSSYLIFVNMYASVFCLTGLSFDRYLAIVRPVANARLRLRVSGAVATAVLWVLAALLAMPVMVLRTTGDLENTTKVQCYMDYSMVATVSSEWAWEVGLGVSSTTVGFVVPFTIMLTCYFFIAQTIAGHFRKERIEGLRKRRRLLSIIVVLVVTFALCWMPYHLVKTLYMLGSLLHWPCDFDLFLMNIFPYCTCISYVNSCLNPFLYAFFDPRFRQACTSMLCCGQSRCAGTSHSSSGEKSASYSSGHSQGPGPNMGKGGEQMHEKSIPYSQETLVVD

[2] = biological target: T2, rat APJ receptor (rat, UniProt Q9JHG3 1-377); assay: cell-based or functional assay
T2 sequence (looked up): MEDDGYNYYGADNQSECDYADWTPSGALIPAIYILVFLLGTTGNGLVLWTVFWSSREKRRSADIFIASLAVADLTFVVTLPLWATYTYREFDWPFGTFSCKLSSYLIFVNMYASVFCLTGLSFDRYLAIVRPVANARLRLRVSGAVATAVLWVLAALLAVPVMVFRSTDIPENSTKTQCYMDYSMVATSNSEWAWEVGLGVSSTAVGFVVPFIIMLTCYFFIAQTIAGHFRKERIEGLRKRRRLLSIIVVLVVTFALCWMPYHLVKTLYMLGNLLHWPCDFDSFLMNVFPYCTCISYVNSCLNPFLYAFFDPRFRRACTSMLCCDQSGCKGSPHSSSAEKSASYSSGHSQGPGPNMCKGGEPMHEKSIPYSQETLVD

B1: Apelin polypeptide SEQ ID NO: 531 (peptide)
peptide: Tridecanoyl-[γGlu][AEEA][AEEA][dQ]RP[NMeR][Cha]SYKG[Oic][Nle][Aib][Phe(4-Cl)]-OH
SMILES: CCCCCCCCCCCCC(=O)N[C@@H](CCC(=O)NCCOCCOCC(=O)NCCOCCOCC(=O)N[C@H](CCC(N)=O)C(=O)N[C@@H](CCCNC(=N)N)C(=O)N1CCC[C@H]1C(=O)N(C)[C@@H](CCCNC(=N)N)C(=O)N[C@@H](CC1CCCCC1)C(=O)N[C@@H](CO)C(=O)N[C@@H](Cc1ccc(O)cc1)C(=O)N[C@@H](CCCCN)C(=O)NCC(=O)N1[C@H](C(=O)N[C@@H](CCCC)C(=O)NC(C)(C)C(=O)N[C@@H](Cc2ccc(Cl)cc2)C(=O)O)C[C@@H]2CCCC[C@@H]21)C(=O)O
[1]
  EC50 Human APJ Receptor (GTPγS assay): 0.852 nM
[2]
  EC50 Rat APJ Receptor (GTPγS assay): 5.66 nM

B2: Apelin polypeptide SEQ ID NO: 439 (peptide)
peptide: Tridecanoyl-[γGlu][AEEA][AEEA]QRP[NMeR][Tle]SHKG[Oic][Nle]P[Phe(4-Cl)]-OH
SMILES: CCCCCCCCCCCCC(=O)N[C@@H](CCC(=O)NCCOCCOCC(=O)NCCOCCOCC(=O)N[C@@H](CCC(N)=O)C(=O)N[C@@H](CCCNC(=N)N)C(=O)N1CCC[C@H]1C(=O)N(C)[C@@H](CCCNC(=N)N)C(=O)N[C@H](C(=O)N[C@@H](CO)C(=O)N[C@@H](Cc1c[nH]cn1)C(=O)N[C@@H](CCCCN)C(=O)NCC(=O)N1[C@H](C(=O)N[C@@H](CCCC)C(=O)N2CCC[C@H]2C(=O)N[C@@H](Cc2ccc(Cl)cc2)C(=O)O)C[C@@H]2CCCC[C@@H]21)C(C)(C)C)C(=O)O
[1]
  EC50 Human APJ Receptor (GTPγS assay): 2.15 nM
[2]
  EC50 Rat APJ Receptor (GTPγS assay): 3.21 nM

B3: Apelin polypeptide SEQ ID NO: 464 (peptide)
peptide: Tridecanoyl-[γGlu][AEEA][AEEA]QRP[NMeR]L[βAla]HKGP[Nle]P[Phe(4-Cl)]-OH
SMILES: CCCCCCCCCCCCC(=O)N[C@@H](CCC(=O)NCCOCCOCC(=O)NCCOCCOCC(=O)N[C@@H](CCC(N)=O)C(=O)N[C@@H](CCCNC(=N)N)C(=O)N1CCC[C@H]1C(=O)N(C)[C@@H](CCCNC(=N)N)C(=O)N[C@@H](CC(C)C)C(=O)NCCC(=O)N[C@@H](Cc1c[nH]cn1)C(=O)N[C@@H](CCCCN)C(=O)NCC(=O)N1CCC[C@H]1C(=O)N[C@@H](CCCC)C(=O)N1CCC[C@H]1C(=O)N[C@@H](Cc1ccc(Cl)cc1)C(=O)O)C(=O)O
[1]
  EC50 Human APJ Receptor (GTPγS assay): 0.0542 nM
[2]
  EC50 Rat APJ Receptor (GTPγS assay): 0.377 nM

B4: Apelin polypeptide SEQ ID NO: 467 (peptide)
peptide: Tridecanoyl-[γGlu][AEEA][AEEA]QRP[NMeR]L[Gly(N-CH2CH2OH)]HKGP[Nle]P[Phe(4-Cl)]-OH
SMILES: CCCCCCCCCCCCC(=O)N[C@@H](CCC(=O)NCCOCCOCC(=O)NCCOCCOCC(=O)N[C@@H](CCC(N)=O)C(=O)N[C@@H](CCCNC(=N)N)C(=O)N1CCC[C@H]1C(=O)N(C)[C@@H](CCCNC(=N)N)C(=O)N[C@@H](CC(C)C)C(=O)N(CCO)CC(=O)N[C@@H](Cc1c[nH]cn1)C(=O)N[C@@H](CCCCN)C(=O)NCC(=O)N1CCC[C@H]1C(=O)N[C@@H](CCCC)C(=O)N1CCC[C@H]1C(=O)N[C@@H](Cc1ccc(Cl)cc1)C(=O)O)C(=O)O
[1]
  EC50 Human APJ Receptor (GTPγS assay): 0.129 nM
[2]
  EC50 Rat APJ Receptor (GTPγS assay): 0.521 nM

## XXXQRPRLXHKGPXPF ({TDA}[AC4Abu][Aeea][Aeea]QRP[NMeArg]L[Pra]HKGP[Nle]P[4-Cl-F]{COOH}) [Apelin polypeptide SEQ ID NO: 450]
[1]
  EC50 Human APJ Receptor (GTPγS assay): 0.132 nM
[2]
  EC50 Rat APJ Receptor (GTPγS assay): 0.313 nM

B5: Apelin polypeptide SEQ ID NO: 423 (peptide)
peptide: Tridecanoyl-[AC4Abu][AEEA][AEEA]QRP[NMeR]LS[βAla]KGP[Nle]P[Phe(4-Cl)]-OH
SMILES: CCCCCCCCCCCCC(=O)NCCC(C(=O)O)C(=O)NCCOCCOCC(=O)NCCOCCOCC(=O)N[C@@H](CCC(N)=O)C(=O)N[C@@H](CCCNC(=N)N)C(=O)N1CCC[C@H]1C(=O)N(C)[C@@H](CCCNC(=N)N)C(=O)N[C@@H](CC(C)C)C(=O)N[C@@H](CO)C(=O)NCCC(=O)N[C@@H](CCCCN)C(=O)NCC(=O)N1CCC[C@H]1C(=O)N[C@@H](CCCC)C(=O)N1CCC[C@H]1C(=O)N[C@@H](Cc1ccc(Cl)cc1)C(=O)O
[1]
  EC50 Human APJ Receptor (GTPγS assay): 0.645 nM
[2]
  EC50 Rat APJ Receptor (GTPγS assay): 1.18 nM

B6: Apelin polypeptide SEQ ID NO: 449 (peptide)
peptide: Tridecanoyl-[γGlu][AEEA][AEEA]QRP[NMeR]LSH[1Nal]GP[Nle]P[Phe(4-Cl)]-OH
SMILES: CCCCCCCCCCCCC(=O)N[C@@H](CCC(=O)NCCOCCOCC(=O)NCCOCCOCC(=O)N[C@@H](CCC(N)=O)C(=O)N[C@@H](CCCNC(=N)N)C(=O)N1CCC[C@H]1C(=O)N(C)[C@@H](CCCNC(=N)N)C(=O)N[C@@H](CC(C)C)C(=O)N[C@@H](CO)C(=O)N[C@@H](Cc1c[nH]cn1)C(=O)N[C@@H](Cc1cccc2ccccc12)C(=O)NCC(=O)N1CCC[C@H]1C(=O)N[C@@H](CCCC)C(=O)N1CCC[C@H]1C(=O)N[C@@H](Cc1ccc(Cl)cc1)C(=O)O)C(=O)O
[1]
  EC50 Human APJ Receptor (GTPγS assay): 0.394 nM
[2]
  EC50 Rat APJ Receptor (GTPγS assay): 0.47 nM

B7: Apelin polypeptide SEQ ID NO: 424 (peptide)
peptide: Tridecanoyl-[γGlu][AEEA][AEEA]QRP[NMeR]LSH[βAla]GP[Nle]P[Phe(4-Cl)]-OH
SMILES: CCCCCCCCCCCCC(=O)N[C@@H](CCC(=O)NCCOCCOCC(=O)NCCOCCOCC(=O)N[C@@H](CCC(N)=O)C(=O)N[C@@H](CCCNC(=N)N)C(=O)N1CCC[C@H]1C(=O)N(C)[C@@H](CCCNC(=N)N)C(=O)N[C@@H](CC(C)C)C(=O)N[C@@H](CO)C(=O)N[C@@H](Cc1c[nH]cn1)C(=O)NCCC(=O)NCC(=O)N1CCC[C@H]1C(=O)N[C@@H](CCCC)C(=O)N1CCC[C@H]1C(=O)N[C@@H](Cc1ccc(Cl)cc1)C(=O)O)C(=O)O
[1]
  EC50 Human APJ Receptor (GTPγS assay): 4.15 nM
[2]
  EC50 Rat APJ Receptor (GTPγS assay): 17.2 nM

B8: Apelin polypeptide SEQ ID NO: 448 (peptide)
peptide: Tridecanoyl-[γGlu][AEEA][AEEA]QRP[NMeR]LSHHGP[Nle]P[Phe(4-Cl)]-OH
SMILES: CCCCCCCCCCCCC(=O)N[C@@H](CCC(=O)NCCOCCOCC(=O)NCCOCCOCC(=O)N[C@@H](CCC(N)=O)C(=O)N[C@@H](CCCNC(=N)N)C(=O)N1CCC[C@H]1C(=O)N(C)[C@@H](CCCNC(=N)N)C(=O)N[C@@H](CC(C)C)C(=O)N[C@@H](CO)C(=O)N[C@@H](Cc1c[nH]cn1)C(=O)N[C@@H](Cc1c[nH]cn1)C(=O)NCC(=O)N1CCC[C@H]1C(=O)N[C@@H](CCCC)C(=O)N1CCC[C@H]1C(=O)N[C@@H](Cc1ccc(Cl)cc1)C(=O)O)C(=O)O
[1]
  EC50 Human APJ Receptor (GTPγS assay): 0.133 nM
[2]
  EC50 Rat APJ Receptor (GTPγS assay): 0.305 nM

B9: Apelin polypeptide SEQ ID NO: 352 (peptide)
peptide: Tridecanoyl-[γGlu][AEEA][AEEA]QRP[NMeR]LSHKG[Oic][Nle]P[Phe(4-Cl)]-OH
SMILES: CCCCCCCCCCCCC(=O)N[C@@H](CCC(=O)NCCOCCOCC(=O)NCCOCCOCC(=O)N[C@@H](CCC(N)=O)C(=O)N[C@@H](CCCNC(=N)N)C(=O)N1CCC[C@H]1C(=O)N(C)[C@@H](CCCNC(=N)N)C(=O)N[C@@H](CC(C)C)C(=O)N[C@@H](CO)C(=O)N[C@@H](Cc1c[nH]cn1)C(=O)N[C@@H](CCCCN)C(=O)NCC(=O)N1[C@H](C(=O)N[C@@H](CCCC)C(=O)N2CCC[C@H]2C(=O)N[C@@H](Cc2ccc(Cl)cc2)C(=O)O)C[C@@H]2CCCC[C@@H]21)C(=O)O
[1]
  EC50 Human APJ Receptor (GTPγS assay): 0.108 nM
[2]
  EC50 Rat APJ Receptor (GTPγS assay): 0.23 nM

B10: Apelin polypeptide SEQ ID NO: 403 (peptide)
peptide: Tridecanoyl-[AC4Abu][AEEA][AEEA]QRP[NMeR]LSHKGP[Nle][2Nal]-OH
SMILES: CCCCCCCCCCCCC(=O)NCCC(C(=O)O)C(=O)NCCOCCOCC(=O)NCCOCCOCC(=O)N[C@@H](CCC(N)=O)C(=O)N[C@@H](CCCNC(=N)N)C(=O)N1CCC[C@H]1C(=O)N(C)[C@@H](CCCNC(=N)N)C(=O)N[C@@H](CC(C)C)C(=O)N[C@@H](CO)C(=O)N[C@@H](Cc1c[nH]cn1)C(=O)N[C@@H](CCCCN)C(=O)NCC(=O)N1CCC[C@H]1C(=O)N[C@@H](CCCC)C(=O)N[C@@H](Cc1ccc2ccccc2c1)C(=O)O
[1]
  EC50 Human APJ Receptor (GTPγS assay): 2.63 nM
[2]
  EC50 Rat APJ Receptor (GTPγS assay): 8.1 nM

B11: Apelin polypeptide SEQ ID NO: 402 (peptide)
peptide: Tridecanoyl-[AC4Abu][AEEA][AEEA]QRP[NMeR]LSHKGP[Nle][Phe(4-Cl)]-OH
SMILES: CCCCCCCCCCCCC(=O)NCCC(C(=O)O)C(=O)NCCOCCOCC(=O)NCCOCCOCC(=O)N[C@@H](CCC(N)=O)C(=O)N[C@@H](CCCNC(=N)N)C(=O)N1CCC[C@H]1C(=O)N(C)[C@@H](CCCNC(=N)N)C(=O)N[C@@H](CC(C)C)C(=O)N[C@@H](CO)C(=O)N[C@@H](Cc1c[nH]cn1)C(=O)N[C@@H](CCCCN)C(=O)NCC(=O)N1CCC[C@H]1C(=O)N[C@@H](CCCC)C(=O)N[C@@H](Cc1ccc(Cl)cc1)C(=O)O
[1]
  EC50 Human APJ Receptor (GTPγS assay): 0.1 nM
[2]
  EC50 Rat APJ Receptor (GTPγS assay): 0.246 nM

## XXXQRPRLSHKGPXPF ({TDA}[AC4Abu][Aeea][Aeea]QRP[NMeArg]LSHKGP[Nle][aMePro][4-Cl-F]{COOH}) [Apelin polypeptide SEQ ID NO: 401]
[1]
  EC50 Human APJ Receptor (GTPγS assay): 0.0816 nM
[2]
  EC50 Rat APJ Receptor (GTPγS assay): 0.351 nM
